How the values were obtained:
Test in all cases: SPR, mAb captured, C2 mutant analyte;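 also: Anti-C2 mAbs captured on goat anti-human IgG Biacore CM5 chips, alanine or serine C2 surface mutants flowed over at 37 °C, double-referenced sensorgrams fitted to a 1:1 binding model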
human C2 F270A = target: T1, human C2 F270A (human, UniProt P06681 21-752)
T1 sequence: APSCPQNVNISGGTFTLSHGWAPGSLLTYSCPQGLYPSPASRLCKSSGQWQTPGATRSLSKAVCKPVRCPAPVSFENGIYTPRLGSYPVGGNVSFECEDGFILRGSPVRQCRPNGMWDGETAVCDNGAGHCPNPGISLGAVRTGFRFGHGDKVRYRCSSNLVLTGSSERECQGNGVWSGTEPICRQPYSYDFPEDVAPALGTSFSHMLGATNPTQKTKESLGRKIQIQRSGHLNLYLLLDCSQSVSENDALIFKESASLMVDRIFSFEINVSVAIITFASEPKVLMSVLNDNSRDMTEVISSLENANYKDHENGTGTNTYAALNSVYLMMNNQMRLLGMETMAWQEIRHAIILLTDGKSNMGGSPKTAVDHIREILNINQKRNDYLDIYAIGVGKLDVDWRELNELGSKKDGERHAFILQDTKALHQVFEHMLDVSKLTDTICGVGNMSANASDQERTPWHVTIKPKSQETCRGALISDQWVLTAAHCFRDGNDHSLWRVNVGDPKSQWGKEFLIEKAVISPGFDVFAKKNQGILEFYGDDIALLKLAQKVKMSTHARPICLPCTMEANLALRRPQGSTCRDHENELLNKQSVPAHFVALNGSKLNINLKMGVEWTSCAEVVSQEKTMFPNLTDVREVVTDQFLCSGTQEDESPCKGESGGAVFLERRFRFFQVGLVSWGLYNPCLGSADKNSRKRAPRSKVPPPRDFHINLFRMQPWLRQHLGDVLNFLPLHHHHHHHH

human C2 D282A = target: T2, human C2 D282A (human, UniProt P06681 21-752)
T2 sequence: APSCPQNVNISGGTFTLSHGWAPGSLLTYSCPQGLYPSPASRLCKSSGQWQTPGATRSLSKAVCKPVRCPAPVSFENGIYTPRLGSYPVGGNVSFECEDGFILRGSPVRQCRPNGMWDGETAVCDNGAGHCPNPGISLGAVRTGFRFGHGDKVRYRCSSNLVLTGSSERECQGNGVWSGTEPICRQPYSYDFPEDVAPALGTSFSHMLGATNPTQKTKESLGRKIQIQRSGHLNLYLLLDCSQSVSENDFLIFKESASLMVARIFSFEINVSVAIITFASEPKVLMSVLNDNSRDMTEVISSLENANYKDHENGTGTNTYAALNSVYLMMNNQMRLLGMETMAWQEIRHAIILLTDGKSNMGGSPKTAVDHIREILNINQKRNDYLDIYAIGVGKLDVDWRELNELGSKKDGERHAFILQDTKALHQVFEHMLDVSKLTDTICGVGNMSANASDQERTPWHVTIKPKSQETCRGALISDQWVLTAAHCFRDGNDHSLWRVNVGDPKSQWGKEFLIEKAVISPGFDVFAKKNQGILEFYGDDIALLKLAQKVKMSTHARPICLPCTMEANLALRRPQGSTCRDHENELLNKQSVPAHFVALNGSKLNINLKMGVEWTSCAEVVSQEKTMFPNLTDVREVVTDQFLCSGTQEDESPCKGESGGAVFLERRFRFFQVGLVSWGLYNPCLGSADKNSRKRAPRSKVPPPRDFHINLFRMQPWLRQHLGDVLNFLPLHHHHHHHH

human C2 Y328A = target: T3, human C2 Y328A (human, UniProt P06681 21-752)
T3 sequence: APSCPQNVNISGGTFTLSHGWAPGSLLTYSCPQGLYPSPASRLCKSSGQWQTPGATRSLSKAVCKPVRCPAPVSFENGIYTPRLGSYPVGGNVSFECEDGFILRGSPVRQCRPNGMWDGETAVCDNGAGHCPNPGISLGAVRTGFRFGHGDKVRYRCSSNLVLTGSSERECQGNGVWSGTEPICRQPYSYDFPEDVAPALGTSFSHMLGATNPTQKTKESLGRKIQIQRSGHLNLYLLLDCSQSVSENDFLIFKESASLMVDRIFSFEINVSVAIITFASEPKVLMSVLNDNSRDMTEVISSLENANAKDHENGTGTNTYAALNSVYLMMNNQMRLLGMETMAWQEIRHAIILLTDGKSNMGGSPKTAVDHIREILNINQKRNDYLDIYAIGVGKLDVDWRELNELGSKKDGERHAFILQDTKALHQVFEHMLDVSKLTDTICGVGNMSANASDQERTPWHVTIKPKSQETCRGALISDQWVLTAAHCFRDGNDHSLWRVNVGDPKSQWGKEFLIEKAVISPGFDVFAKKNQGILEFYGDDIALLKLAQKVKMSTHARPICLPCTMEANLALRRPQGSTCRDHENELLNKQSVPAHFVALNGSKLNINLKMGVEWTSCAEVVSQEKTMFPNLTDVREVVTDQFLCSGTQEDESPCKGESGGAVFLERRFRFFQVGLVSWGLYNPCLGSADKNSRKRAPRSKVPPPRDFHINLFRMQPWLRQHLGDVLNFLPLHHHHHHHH

human C2 N471A = target: T4, human C2 N471A (human, UniProt P06681 21-752)
T4 sequence: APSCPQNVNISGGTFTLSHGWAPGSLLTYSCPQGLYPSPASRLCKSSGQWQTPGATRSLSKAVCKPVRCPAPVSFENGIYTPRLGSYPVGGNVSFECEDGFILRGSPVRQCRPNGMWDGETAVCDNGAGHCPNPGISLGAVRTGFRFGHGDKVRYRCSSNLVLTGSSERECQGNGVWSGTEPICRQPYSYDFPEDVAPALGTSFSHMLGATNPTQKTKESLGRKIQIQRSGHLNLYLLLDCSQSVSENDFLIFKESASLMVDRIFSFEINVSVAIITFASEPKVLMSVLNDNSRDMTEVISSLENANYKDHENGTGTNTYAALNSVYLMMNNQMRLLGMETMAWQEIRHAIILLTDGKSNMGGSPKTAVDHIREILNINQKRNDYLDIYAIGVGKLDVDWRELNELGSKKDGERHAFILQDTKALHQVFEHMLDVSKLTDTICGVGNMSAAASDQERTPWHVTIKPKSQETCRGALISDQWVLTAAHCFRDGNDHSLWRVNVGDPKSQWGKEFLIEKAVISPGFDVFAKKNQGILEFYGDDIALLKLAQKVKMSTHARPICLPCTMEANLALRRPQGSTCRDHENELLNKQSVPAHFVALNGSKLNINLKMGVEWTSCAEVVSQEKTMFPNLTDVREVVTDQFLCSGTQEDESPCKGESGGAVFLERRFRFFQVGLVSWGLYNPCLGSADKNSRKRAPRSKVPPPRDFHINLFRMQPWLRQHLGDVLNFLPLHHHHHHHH

B1: RF16-214 (antibody, V domains shown)
VH: EVQLLESGGGLVQPGGSLRLSCAASGFTFSWYQMMWVRQAPGKGLEWVSRIYPSGGGTAYADSVKGRFTISRDNSKNTLYLQMNSLRAEDTAVYYCARDAGYGDNWGQGTLVTVSS
VL: QSALTQPPSVSVSPGQTASITCSGDKLGEKYASWYQQKAGQSPVMVIYQDRKRPSGIPERFSGSNSGNTATLTISGTQAMDEADYYCQAWDTRAVVFGGGTKLTVLG
B1 was tested, and the binding result (human C2 F270A) was “no binding”, the binding result (human C2 D282A) was “no binding” and the Kd (human C2 Y328A) was 196 nM. It also gave a Kd (human C2 N471A) of 32.8 nM.
